Experimental findings from patent publication US20220218785A1 (ALPINE IMMUNE SCIENCES, published 2022) are described below.

To fix the notation:
T1: human ICOS (human, UniProt Q9Y6W8 21-199)
T1 construct: whole, on cells
T1 sequence (looked up): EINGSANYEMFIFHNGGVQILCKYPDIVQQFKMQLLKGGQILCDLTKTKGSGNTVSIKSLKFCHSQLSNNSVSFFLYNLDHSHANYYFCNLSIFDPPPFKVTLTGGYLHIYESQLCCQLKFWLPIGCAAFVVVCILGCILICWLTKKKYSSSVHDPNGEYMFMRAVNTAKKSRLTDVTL

B1: variant ICOSL ECD-Fc N52H/N57Y/Q100R/F172S, AAA linker, Fc C220S/E233P/L234V/L235A/G236del/S267K (SEQ ID NO: 44) (Fc fusion)
chain: DTQEKEVRAMVGSDVELSCACPEGSRFDLNDVYVYWQTSESKTVVTYHIPQHSSLEYVDSRYRNRALMSPAGMLRGDFSLRLFNVTPQDEQKFHCLVLSRSLGFQEVLSVEVTLHVAANFSVPVVSAPHSPSQDELTFTCTSINGYPRPNVYWINKTDNSLLDQALQNDTVSLNMRGLYDVVSVLRIARTPSVNIGCCIENVLLQQNLTVGSQTGNDIGERDKITENPVSTGEKNAATAAAEPKSSDKTHTCPPCPAPPVAGPSVFLFPPKPKDTLMISRTPEVTCVVVDVKHEDPEVKFNWYVDGVEVHNAKTKPREEQYNSTYRVVSVLTVLHQDWLNGKEYKCKVSNKALPAPIEKTISKAKGQPREPQVYTLPPSREEMTKNQVSLTCLVKGFYPSDIAVEWESNGQPENNYKTTPPVLDSDGSFFLYSKLTVDKSRWQQGNVFSCSVMHEALHNHYTQKSLSLSPGK
notes: Made in 293 cells; Fc or allotypes thereof
B2: variant ICOSL ECD-Fc N52H/N57Y/Q100P, AAA linker, Fc C220S/E233P/L234V/L235A/G236del/S267K (SEQ ID NO: 44) (Fc fusion)
chain: B1 chain with R100P, S172F
notes: as for B1
B3: ICOSL ECD Truncation #7 with N52H/N57Y/Q100R/F172S and F83S, Fc fusion (Fc fusion)
chain: DTQEKEVRAMVGSDVELSCACPEGSRFDLNDVYVYWQTSESKTVVTYHIPQHSSLEYVDSRYRNRALMSPAGMLRGDFSLRLSNVTPQDEQKFHCLVLSRSLGFQEVLSVEVTLHVAANFSVPVVSAPHSPSQDELTFTCTSINGYPRPNVYWINKTDNSLLDQALQNDTVSLNMRGLYDVVSVLRIARTPSVNIGCCIENGGGGSGGGGSEPKSSDKTHTCPPCPAPEAEGAPSVFLFPPKPKDTLMISRTPEVTCVVVDVSHEDPEVKFNWYVDGVEVHNAKTKPREEQYNSTYRVVSVLTVLHQDWLNGKEYKCKVSNKALPAPIEKTISKAKGQPREPQVYTLPPSREEMTKNQVSLTCLVKGFYPSDIAVEWESNGQPENNYKTTPPVLDSDGSFFLYSKLTVDKSRWQQGNVFSCSVMHEALHNHYTQKSLSLSPG
notes: Made in CHO cells; F83S is an additional mutation found later in the clone
B4: ICOSL IgV with N52H/N57Y/Q100R and H48R/S54P, Fc fusion (Fc fusion)
chain: DTQEKEVRAMVGSDVELSCACPEGSRFDLNDVYVYWQTSESKTVVTYRIPQHSPLEYVDSRYRNRALMSPAGMLRGDFSLRLFNVTPQDEQKFHCLVLSRSLGFQEVLSVEVTLHVAANFSVGGGGSGGGGSEPKSSDKTHTCPPCPAPEAEGAPSVFLFPPKPKDTLMISRTPEVTCVVVDVSHEDPEVKFNWYVDGVEVHNAKTKPREEQYNSTYRVVSVLTVLHQDWLNGKEYKCKVSNKALPAPIEKTISKAKGQPREPQVYTLPPSREEMTKNQVSLTCLVKGFYPSDIAVEWESNGQPENNYKTTPPVLDSDGSFFLYSKLTVDKSRWQQGNVFSCSVMHEALHNHYTQKSLSLSPG
notes: Made in CHO cells. '554P' is read as S54P; also called ICOSL IgV with N52H/N57Y/Q100R and H48R/554P
B5: ICOSL ECD Truncation #8 with N207G/L208G and N52H/N57Y/Q100R/F172S, Fc fusion (Fc fusion)
chain: DTQEKEVRAMVGSDVELSCACPEGSRFDLNDVYVYWQTSESKTVVTYHIPQHSSLEYVDSRYRNRALMSPAGMLRGDFSLRLFNVTPQDEQKFHCLVLSRSLGFQEVLSVEVTLHVAANFSVPVVSAPHSPSQDELTFTCTSINGYPRPNVYWINKTDNSLLDQALQNDTVSLNMRGLYDVVSVLRIARTPSVNIGCCIENVLLQQGGTGGGGSGGGGSEPKSSDKTHTCPPCPAPEAEGAPSVFLFPPKPKDTLMISRTPEVTCVVVDVSHEDPEVKFNWYVDGVEVHNAKTKPREEQYNSTYRVVSVLTVLHQDWLNGKEYKCKVSNKALPAPIEKTISKAKGQPREPQVYTLPPSREEMTKNQVSLTCLVKGFYPSDIAVEWESNGQPENNYKTTPPVLDSDGSFFLYSKLTVDKSRWQQGNVFSCSVMHEALHNHYTQKSLSLSPG
notes: Made in CHO cells
B6: ICOSL ECD with N52H/N57Y/Q100R/C198R (Table 18) (Fc fusion, not shown: a dimerising Fc or GST)
chain: DTQEKEVRAMVGSDVELSCACPEGSRFDLNDVYVYWQTSESKTVVTYHIPQHSSLEYVDSRYRNRALMSPAGMLRGDFSLRLFNVTPQDEQKFHCLVLSRSLGFQEVLSVEVTLHVAANFSVPVVSAPHSPSQDELTFTCTSINGYPRPNVYWINKTDNSLLDQALQNDTVFLNMRGLYDVVSVLRIARTPSVNIGCRIENVLLQQNLTVGSQTGNDIGERDKITENPVSTGEKNAAT
notes: Made in CHO cells; May be the same construct as m37
B7: ICOSL ECD Truncation #6 with N52H/N57Y/Q100R/C198R (Fc fusion, not shown: a dimerising Fc or GST)
chain: DTQEKEVRAMVGSDVELSCACPEGSRFDLNDVYVYWQTSESKTVVTYHIPQHSSLEYVDSRYRNRALMSPAGMLRGDFSLRLFNVTPQDEQKFHCLVLSRSLGFQEVLSVEVTLHVAANFSVPVVSAPHSPSQDELTFTCTSINGYPRPNVYWINKTDNSLLDQALQNDTVFLNMRGLYDVVSVLRIARTPSVNIGCRIENVLL
notes: Made in CHO cells
B8: ICOSL ECD Truncation #6 with N52H/N57Y/Q100R/F172S, Fc fusion (Fc fusion)
chain: DTQEKEVRAMVGSDVELSCACPEGSRFDLNDVYVYWQTSESKTVVTYHIPQHSSLEYVDSRYRNRALMSPAGMLRGDFSLRLFNVTPQDEQKFHCLVLSRSLGFQEVLSVEVTLHVAANFSVPVVSAPHSPSQDELTFTCTSINGYPRPNVYWINKTDNSLLDQALQNDTVSLNMRGLYDVVSVLRIARTPSVNIGCCIENVLLGGGGSGGGGSEPKSSDKTHTCPPCPAPEAEGAPSVFLFPPKPKDTLMISRTPEVTCVVVDVSHEDPEVKFNWYVDGVEVHNAKTKPREEQYNSTYRVVSVLTVLHQDWLNGKEYKCKVSNKALPAPIEKTISKAKGQPREPQVYTLPPSREEMTKNQVSLTCLVKGFYPSDIAVEWESNGQPENNYKTTPPVLDSDGSFFLYSKLTVDKSRWQQGNVFSCSVMHEALHNHYTQKSLSLSPG
notes: Made in CHO cells
B9: ICOSL ECD Truncation #7 with N52H/N57Y/Q100R/C198R and E90K/E111G (Fc fusion, not shown: a dimerising Fc or GST)
chain: DTQEKEVRAMVGSDVELSCACPEGSRFDLNDVYVYWQTSESKTVVTYHIPQHSSLEYVDSRYRNRALMSPAGMLRGDFSLRLFNVTPQDKQKFHCLVLSRSLGFQEVLSVGVTLHVAANFSVPVVSAPHSPSQDELTFTCTSINGYPRPNVYWINKTDNSLLDQALQNDTVFLNMRGLYDVVSVLRIARTPSVNIGCRIEN
notes: Made in CHO cells
B10: ICOSL ECD Truncation #5 with N52H/N57Y/Q100R/C198R (Fc fusion, not shown: a dimerising Fc or GST)
chain: DTQEKEVRAMVGSDVELSCACPEGSRFDLNDVYVYWQTSESKTVVTYHIPQHSSLEYVDSRYRNRALMSPAGMLRGDFSLRLFNVTPQDEQKFHCLVLSRSLGFQEVLSVEVTLHVAANFSVPVVSAPHSPSQDELTFTCTSINGYPRPNVYWINKTDNSLLDQALQNDTVFLNMRGLYDVVSVLRIARTPSVNIGCRIENVLLQQ
notes: Made in CHO cells
B11: ICOSL ECD Truncation #4 with N52H/N57Y/Q100R/F172S and E200G, Fc fusion (Fc fusion)
chain: DTQEKEVRAMVGSDVELSCACPEGSRFDLNDVYVYWQTSESKTVVTYHIPQHSSLEYVDSRYRNRALMSPAGMLRGDFSLRLFNVTPQDEQKFHCLVLSRSLGFQEVLSVEVTLHVAANFSVPVVSAPHSPSQDELTFTCTSINGYPRPNVYWINKTDNSLLDQALQNDTVSLNMRGLYDVVSVLRIARTPSVNIGCCIGNVLLQQNGGGGSGGGGSEPKSSDKTHTCPPCPAPEAEGAPSVFLFPPKPKDTLMISRTPEVTCVVVDVSHEDPEVKFNWYVDGVEVHNAKTKPREEQYNSTYRVVSVLTVLHQDWLNGKEYKCKVSNKALPAPIEKTISKAKGQPREPQVYTLPPSREEMTKNQVSLTCLVKGFYPSDIAVEWESNGQPENNYKTTPPVLDSDGSFFLYSKLTVDKSRWQQGNVFSCSVMHEALHNHYTQKSLSLSPG
notes: Made in CHO cells; E200G is an additional mutation found later in the clone

Positions count from the first letter of the chain named. Names may count otherwise.

The target of one experiment is T2, human CTLA-4 (human, UniProt P16410 36-223).
T2 construct: whole, on cells
T2 sequence (P16410 36-223): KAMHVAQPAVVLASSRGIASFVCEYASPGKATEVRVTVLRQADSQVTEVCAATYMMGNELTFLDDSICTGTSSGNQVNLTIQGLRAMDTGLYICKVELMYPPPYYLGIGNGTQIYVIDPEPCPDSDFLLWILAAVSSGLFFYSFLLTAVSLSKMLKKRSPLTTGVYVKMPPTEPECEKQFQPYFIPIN
Description: flow cytometry, Expi293 cells with human CTLA-4. An excerpt:
(§1) Expi293 cells transfected with cognate binding partners, human CD28, ICOS and CTLA4, were used as target cells in binding studies.
A general note: In flow cytometry, cells or beads pass a laser one at a time.
For B1, the “MFI (ΔWT)” value was found to be 20.5 fold vs WT.

For the molecule B2, the “MFI (ΔWT)” value came to 33.5 fold vs WT.

The target in the next experiment is T2, human CTLA-4. Nature of the experiment: flow cytometry, cells with human CTLA-4; protein from CHO.
B3: the “MFI (ΔWT)” value was determined as 27.3 fold vs WT.

For the molecule B4, the “MFI (ΔWT)” value turned out to be 42.4 fold vs WT.

For B5, the “MFI (ΔWT)” value came to 40.7 fold vs WT.

On to B6, for which the MFI is 133000 MFI and the “MFI (ΔWT)” value stood at 17.5 fold vs WT.

For the molecule B7, the MFI was 236000 MFI and the “MFI (ΔWT)” value was 31.1 fold vs WT.

As to B8, the “MFI (ΔWT)” value turned out to be 31.6 fold vs WT.

B9: the MFI amounted to 83700 MFI and the “MFI (ΔWT)” value worked out at 11 fold vs WT.

Regarding B10, the MFI came out at 216000 MFI and the “MFI (ΔWT)” value is 28.5 fold vs WT.

On to B11, for which the “MFI (ΔWT)” value is 42.3 fold vs WT.

The next experiment has as its target T1, human ICOS. Description: flow cytometry, cells with human ICOS; protein from CHO.
B3: the “MFI (ΔWT)” value was determined as 1.1 fold vs WT.

Regarding B4, the “MFI (ΔWT)” value came to 1.4 fold vs WT.

For the molecule B5, the “MFI (ΔWT)” value was 1.3 fold vs WT.

For B6, the MFI was 139000 MFI and the “MFI (ΔWT)” value stood at 1.4 fold vs WT.

For B7, the MFI turned out to be 91400 MFI and the “MFI (ΔWT)” value came out at 0.9 fold vs WT.

Regarding B8, the “MFI (ΔWT)” value is 0.9 fold vs WT.

As for B9, the MFI was 54600 MFI and the “MFI (ΔWT)” value amounted to 0.5 fold vs WT.

On to B10, for which the MFI stood at 110000 MFI and the “MFI (ΔWT)” value was found to be 1.1 fold vs WT.

In the case of B11, the “MFI (ΔWT)” value is 1.1 fold vs WT.

The target of the next experiment is T1, human ICOS. Nature of the experiment: flow cytometry, Expi293 cells with human ICOS. On the procedure:
Binding studies were carried out on transfected HEK293 cells generated to express the full-length mammalian (human) surface ligands, CD28, ICOS or CTLA-4, using a transient transfection system (Life Technologies, USA). As a control, binding to mock (non-transfected) cells also was assessed. For staining by flow cytometry, 200,000 cells of appropriate transient transfection or negative control (mock) were plated in 96 well round bottom plates, and, then incubated in staining buffer (PBS, phosphate buffered saline; 1% BSA, bovine serum albumin; and 0.1% sodium azide) for 20 minutes to block non-specific binding. Cells were resuspended in staining buffer containing 100 nM to 1 nM variant immunomodulatory protein in 50 μL. Mean Fluorescence Intensity (MFI) was calculated for each transfectant and negative parental line with Cell Quest Pro software (Becton Dickinson, USA) or a Hypercyt flow cytometer (Intellicyte, USA).
as §1
With B1, the “MFI (ΔWT)” value came to 1.3 fold vs WT.

For the molecule B2, the “MFI (ΔWT)” value was 1.3 fold vs WT.

A further experiment deals with T3, human CD28 (human, UniProt P10747 19-220).
T3 construct: whole, on cells
Nature of the experiment: flow cytometry, cells with human CD28; protein from CHO.
In the case of B3, the “MFI (ΔWT)” value is 51.1 fold vs WT.

Consider B4, for which the “MFI (ΔWT)” value was found to be 43.6 fold vs WT.

In the case of B5, the “MFI (ΔWT)” value was found to be 62.4 fold vs WT.

Consider B6, for which the MFI amounted to 59200 MFI and the “MFI (ΔWT)” value was found to be 34.3 fold vs WT.

Regarding B7, the MFI came out at 84600 MFI and the “MFI (ΔWT)” value was 49 fold vs WT.

Turning to B8, the “MFI (ΔWT)” value is 52.8 fold vs WT.

Take B9: the MFI is 38900 MFI and the “MFI (ΔWT)” value turned out to be 22.5 fold vs WT.

With B10, the MFI was found to be 86300 MFI and the “MFI (ΔWT)” value amounted to 50 fold vs WT.

B11: the “MFI (ΔWT)” value is 46.6 fold vs WT.

For a further experiment, the target named is T3, human CD28. Description: flow cytometry, Expi293 cells with human CD28.
From the text: as §1
B1: the “MFI (ΔWT)” value was 10.9 fold vs WT.

For B2, the “MFI (ΔWT)” value was determined as 13.3 fold vs WT.
